T1: MmNAC17 (Malus micromalus, UniProt D9ZJ94 1-336)
T1 sequence: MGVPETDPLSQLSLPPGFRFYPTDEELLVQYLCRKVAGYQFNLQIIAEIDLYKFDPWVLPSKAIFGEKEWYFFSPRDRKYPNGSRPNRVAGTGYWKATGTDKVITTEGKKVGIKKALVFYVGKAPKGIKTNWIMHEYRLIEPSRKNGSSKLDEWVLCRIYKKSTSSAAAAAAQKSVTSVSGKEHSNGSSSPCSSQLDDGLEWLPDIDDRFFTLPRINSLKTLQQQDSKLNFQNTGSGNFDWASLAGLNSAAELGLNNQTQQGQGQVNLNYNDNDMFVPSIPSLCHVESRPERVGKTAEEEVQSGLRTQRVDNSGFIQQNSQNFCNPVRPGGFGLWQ

B1: proMmF3H probe (dsDNA)
DNA 1: AGGTGAAGATCACGTGGCGCAATTTC
DNA 2: GAAATTGCGCCACGTGATCTTCACCT
B2: proMmLAR probe (dsDNA)
DNA 1: GAAGATATCACACGTAGCCAAAAGCG
DNA 2: CGCTTTTGGCTACGTGTGATATCTTC

Biological target: T1, MmNAC17
Experiment: EMSA; binding disrupted by unlabeled competitor (100x); Chemiluminescence EMSA kit (Beyotime); binding buffer, salt, pH and temperature not stated
Settings: protein: recombinant; tags: His (pET-30a, Ni-NTA purified); chain copies: 2; blunt

Row | Binder | binding result
1 | B1 | binds
2 | B2 | binds
